T1: Mmi1 YTH domain (Schizosaccharomyces pombe, UniProt O74958 282-488)
T1 sequence: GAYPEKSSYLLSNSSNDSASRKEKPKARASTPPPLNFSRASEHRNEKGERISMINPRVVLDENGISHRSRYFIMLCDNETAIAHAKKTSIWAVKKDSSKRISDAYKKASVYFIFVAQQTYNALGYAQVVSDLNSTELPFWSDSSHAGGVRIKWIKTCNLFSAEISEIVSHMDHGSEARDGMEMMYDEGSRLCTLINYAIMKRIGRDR

B1: Mmi1 (recombinant, S. pombe) (natural protein)
chain: MSNTNFSTSRSSKSIPELPNLEALRSLWPPPSLNESGDTRSVWTTHTGEPVASSVLSTSGSNNFSSPLKRPAPESHDAPIGRRLMVDDPRLIKHGKYDFSRHCTDYGHSYEWPYFRSLRRESMLYHTSGSYPESQPPYSSYSTDAPHYYHAGSESSAYYDSRSRLHGIQPPPKRRTLSPPPRRLADPVVVGSSRYVEEEVYRRPPYTLASEVPSSASAYQAGYSSYPVRSSPQLSHEDTRHGIASSGSTRYPFVPANTRASHSPSLLEPYAHSLPSSVAPVGAYPEKSSYLLSNSSNDSASRKEKPKARASTPPPLNFSRASEHRNEKGERISMINPRVVLDENGISHRSRYFIMLCDNETAIAHAKKTSIWAVKKDSSKRISDAYKKASVYFIFVAQQTYNALGYAQVVSDLNSTELPFWSDSSHAGGVRIKWIKTCNLFSAEISEIVSHMDHGSEARDGMEMMYDEGSRLCTLINYAIMKRIGRDR
B2: 20-mer unstructured RNA (ssRNA)
RNA: CAGCUCCGCAUCCCUUUCCC
B3: rec8 UUAAAG (ssRNA)
RNA: CUCUUUAAAGCUAAAAAGC
B4: rec8 UUACAC (ssRNA)
RNA: CUCUUUACACCUAAAAAGC
B5: rec8 UUCAAC (ssRNA)
RNA: CUCUUUCAACCUAAAAAGC
B6: rec8 UGAAAC (ssRNA)
RNA: CUCUUGAAACCUAAAAAGC
B7: rec8 UUAAAC (ssRNA)
RNA: CUCUUUAAACCUAAAAAGC
B8: rec8 UUCUCC (ssRNA)
RNA: CUCUUUCUCCCUACAAAGC
B9: rec8 UUAACC (ssRNA)
RNA: CUCUUUAACCCUAAAAAGC

Target: recombinant S. pombe Ccr4-Not complex (seven core subunits) (S. pombe) (UniProt O74856)
Assay: not given
Conditions: not given

Sequence of recombinant S. pombe Ccr4-Not complex (seven core subunits) (S. pombe) (O74856 whole entry, looked up, tested part not stated, one chain of several): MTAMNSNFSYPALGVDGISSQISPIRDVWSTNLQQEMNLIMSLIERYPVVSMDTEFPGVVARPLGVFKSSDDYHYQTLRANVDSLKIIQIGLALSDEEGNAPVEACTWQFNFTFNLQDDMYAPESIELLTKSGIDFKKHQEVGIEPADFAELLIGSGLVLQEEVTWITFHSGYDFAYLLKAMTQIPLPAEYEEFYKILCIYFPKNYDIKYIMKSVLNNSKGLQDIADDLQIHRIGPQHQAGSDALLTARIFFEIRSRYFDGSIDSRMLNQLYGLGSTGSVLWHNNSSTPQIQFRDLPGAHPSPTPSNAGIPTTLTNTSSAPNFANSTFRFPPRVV

For B1, which rate of deadenylation of the rec8^UUAAAC-A30 target RNA by Ccr4-Not with bound Mmi1, against Ccr4-Not without Mmi1 is on record?
Its rate of deadenylation of the rec8^UUAAAC-A30 target RNA by Ccr4-Not with bound Mmi1, against Ccr4-Not without Mmi1 is 5 fold.

Target: T1, Mmi1 YTH domain
Assay: fluorescence polarization; 20 mM HEPES pH 7.5, 100 mM NaCl, 1 mM Mg(OAc)2, 0.1 mM TCEP, 10 nM labeled RNA, 10 min at room temperature; Hill-slope fit
Conditions: protein: recombinant

For B2, which Kd is on record?
The Kd was 13900 ± 1600 nM.

Same assay, conditions: protein: recombinant; label: 3' 6-FAM

With B3 as the binder, how does the Kd read?
The Kd was 231 ± 7 nM.

B4 was tested. Which Kd did it give?
The Kd was 460 ± 25 nM.

For B5, which Kd is on record?
Its Kd is 433 ± 33 nM.

Which Kd does the source give for B6 here?
The Kd was 216 ± 14 nM.

Which Kd does the source give for B7 here?
The Kd was 226 ± 15 nM.

How did the Kd turn out when B8 was run?
The Kd was 1370 ± 140 nM.

For B9, which Kd is on record?
The Kd was 311 ± 13 nM.

From paper PMC5120349, “Reconstitution of Targeted Deadenylation by the Ccr4-Not Complex and the YTH Domain Protein Mmi1”
